One block for each binder: values may come before it.
Experiments:
[1] = molecular target: human MET ECD construct with AA 129-143 exchanged to mouse sequence, on HEK293 cells (human); test: flow cytometry on transfected HEK293 cells, normalised to 5D5 binding at 3 ug/ml
[2] = molecular target: human MET ECD construct with H209 mutated to mouse sequence, on HEK293 cells (human) (UniProt P08581); test: as above
[3] = molecular target: human MET Fc fusion protein (R&D Systems) (human) (UniProt P08581); test: BLI; MET-Fc saturated with antibody at 80 ug/ml (533 nM), then HGF as competitor at 20 ug/ml

% binding compared to 5D5 [1]: 58%
% binding compared to 5D5 [2]: 43%
% HGF binding inhibition [3]: 74%
B1: 36C4 antibody analog (antibody, from another filing, IgG1, V domains shown)
VH: QVQLVESGPGLVKPSQTLSLTCAVSGGSITTNYYYWSWIRQSPGKGLEWMGVIAYDGSTDYSPSLKSRTSISRDTSKNQFSLQLSSVTPEDTAVYYCARDVRVIATGWATANALDAWGQGTLVTVSS
VL: QSVLTQPPSVSGSPGKTVTISCAGTSSDVGYGNYVSWYQQLPGTAPKLLIFAVSYRASGIPDRFSGSKSGNTAFLTISGLQSEDEADYYCASYRSSNNAAVFGGGTHLTVL

% HGF binding inhibition [3]: 50%
B2: 28-MET antibody analog (antibody, from another filing, IgG1, V domains shown)
VH: QVQLQESGPGLVKPGETLSLTCTVSGGSISGYYWSWIRQAPGKGLEWIGEIYYAGSTLYNPSLKGRVTISVDTSKNQFSLKLSSVTAEDTAVYYCARHYGLDWFGDTGMDVWGQGTLVTVSS
VL: DIELTQPPSVSVAPGQSITISCSGDNLGDKYVHWYQQKPGQAPVLVIYDDNERPSGIPERFSGSNSGNTATLTISGTQAEDEADYYCSAYGSHSGTVFGGGTKLTVLG

% HGF binding inhibition [3]: 69%
B3: 223C4 antibody analog (antibody, from another filing, IgG1, V domains shown)
VH: EVLLQQSGPELVKPGASVKIPCKASGYTFTDYNMDWVKQSHGMSLEWIGDINPNNGGTIFNQKFKGKATLTVDKSSSTAYMELRSLTSEDTAVYYCARGRYVGYYYAMDYWGQGTSVTVSS
VL: DIQMTQSPASLSVSVGETVTITCRASENIYSNLAWYQQKQGKSPQLLVYAATNLVDGVPSRFSGSGSGTQYSLKINSLQSEDFGSYYCQHFWGPPYTFGGGTKLEIK

% HGF binding inhibition [3]: 81%
B4: 13-MET antibody analog (antibody, from another filing, IgG1, V domains shown)
VH: QVQLKESGPALVKPTQTLTLTCTFSGFSLSTSGMVVSWIRQPPGKALEWLAFISWDDDKYYSTSLKTRLTISKDTSKNQVVLTMTNMDPVDTATYYCAREPGRYGGYYFDYWGQGTLVTVSS
VL: DIQMTQSPSSLSASVGDRVTITCRASQTISHYLAWYQQKPGKAPKLLIYAASILQSGVPSRFSGSGSGTDFTLTISSLQPEDFAVYYCQQYSGFPVTFGQGTKVEIKR
